For one experiment, the system named is E. coli. Description: Brown Color Assay (cell-based colorimetric assay of HPPD activity and tolerance to HPPD inhibitors). The settings on record: in the presence of 1 mM Cmpd. 1; for brown color formation: read at 440 nm. How it is done:
A specific, although non-limiting, type of assay that can be used to evaluate the HPPD sequences of the invention is a colorimetric assay. In this assay, a YT-broth-type culture medium with 1% agarose, 5 mM L-Tyrosine and 42 mM Succinate, which contains the selection agent for the vector pSE420 (Invitrogen, Karlsruhe, Germany) or a modified version of pSE420 (pSE420(RI)NX) is poured into deep well plates. E. coli culture in the exponential growth phase which contains the vector pSE420-HPPDx (HPPDx means any gene coding for a putative HPPD enzyme/protein) is applied to each well.
Confirmation of activity by Brown Color Assay: To confirm that the designated hits retain HPPD activity and are tolerant to HPPD inhibitors, a cell-based colorimetric assay was employed. Wild-type E. coli strains lack the HPPD pathway; therefore expressing an HPPD enzyme in the presence of the substrate hydroxyphenylpyruvate (HPP) leads to the accumulation of the product, homogentisate (HGA). HGA is, in turn, auto-oxidized to a brown pigment, pyomelanin, which can be read at 440 nm. When cells are grown in the presence of an herbicide, brown color formation is inhibited with no effect on cell growth. The pRANGER vector is a low-copy, broad host range vector that allows some expression in E. coli.

The subject of another experiment is Thorne soybean plants. The experiment can be described thus: Greenhouse herbicide spray application on T0 soybean plants. The format is in vivo. The note with it: single gene cassettes in Thorne soybean, T0 plants sprayed with Cmpd. 1. The text has this: SG1, SG10, SG20, and SG22 were transformed as single gene cassettes into Thorne soybean plants and T0 plants were sprayed with Cmpd. 1 to measure herbicide tolerance. Each iteration of mutant identified in the bacterial screening assay performed better than the previous version (SG20>SG10>SG1).

In the next experiment the test system is Cmpd. 1. Description: HitMix bacterial competition experiment against Cmpd. 1. Type of experiment: cell-based. The note with it: plasmid DNA of SG1, SG10 and reference proteins mixed, transformed and screened against Cmpd. 1. The text has this: Screening variant libraries: In order to select improved variants, libraries of varying complexity were constructed in the pRANGER backbone. The first significant library to be screened was a multi-site saturation library, in which amino acid positions 338, 339, 340, and 341 were randomized with NNK codons, which use 32 codons to encode all 20 amino acids, for a theoretical complexity of 1.6×10^5 unique protein variants. Approximately 500,000 variants were transformed and screened in a bacterial competition assay against 5 mM Cmpd. 1 (2-chloro-3-(methylsulfanyl)-N-(1-methyl-1H-tetrazol-5-yl)-4-(trifluoromethyl)benzamide), and surviving clones were sequenced. After 3 rounds of subculturing, a single sequence was found and designated SG1 (Table 1). This sequence was used as the base gene for a 2nd generation library saturating positions 268, 270, 340, and 345. Similarly, these libraries were screened and SG10 (Table 1) was obtained from sequencing the surviving cultures at high concentrations of Cmpd. 1. To confirm that the hits had improved tolerance relative to K610, a “HitMix” competition experiment was carried out. Briefly, the plasmid DNA encoding each variant to be competed were mixed together in an Eppendorf tube, and then the DNA mixture was transformed and screened against Cmpd. 1 as previously described.

Residue numbers refer to the chain shown, from its start. Names may count otherwise.

B1: SG10: HPPD variant, SEQ ID NO:3; P268D, E335P, G336D, N337S, K339Y, A340R, I345M (protein)
chain: MADLYENPMGLMGFEFIEFASPTPGTLEPIFEIMGFTKVATHRSKNVHLYRQGEINLILNNEPNSIASYFAAEHGPSVCGMAFRVKDSQKAYNRALELGAQPIHIDTGPMELNLPAIKGIGGAPLYLIDRFGEGSSIYDIDFVYLEGVERNPVGAGLKVIDHLTHNVYRGRMVYWANFYEKLFNFREARYFDIKGEYTGLTSKAMSAPDGMIRIPLNEESSKGAGQIEEFLMQFNGEGIQHVAFLTDDLVKTWDALKKIGMRFMTAPDDTYYEMLEGRLPDHGEPVDQLQARGILLDGSSVEGDKRLLLQIFSETLMGPVFFEFIQRKGDDGFGPDSFYRLFESMERDQVRRGVLTAD
modifications: SG10 Mutant HPPD
notes: P268D, E335P, G336D, N337S, K339Y, A340R, I345M
Consider B1, for which, in the experiment on E. coli, the “brown color formation relative to HPPD(evo41)” value is on record as “improved relative to HPPD(evo41)” and the brown color formation result is “robust brown color formation”. The “herbicide tolerance in planta” value in the experiment on Thorne soybean plants is given as “SG20>SG10>SG1”. The “outcome of HitMix competition among variants” value in the experiment with Cmpd. 1 was “emerged as the dominant sequence among all variants tested”.

B2: SG1: HPPD variant, SEQ ID NO:2; E335P, G336D, N337S, K339Y, A340R relative to SEQ ID NO:1 (protein)
chain: B1 chain with D268P, M345I
modifications: SG1 variant HPPD
Regarding B2, in the experiment on E. coli, the “brown color formation relative to HPPD(evo41)” value is given as “improved relative to HPPD(evo41)” and the brown color formation entry was “robust brown color formation”. The “herbicide tolerance in planta” value in the experiment with Thorne soybean plants was “SG20>SG10>SG1”.

B3: SG20: HPPD variant, SEQ ID NO:4; P268D, T270A, E335P, G336D, N337S, K339Y, A340R, S344Q, I345M (protein)
chain: B1 chain with T270A, S344Q
modifications: SG20 mutant HPPD
notes: P268D, T270A, E335P, G336D, N337S, K339Y, A340R, S344Q, I345M
In the case of B3, the “herbicide tolerance in planta” value in the experiment on Thorne soybean plants is “SG20>SG10>SG1”.

B4: SG22: HPPD variant, SEQ ID NO:5; P268D, E335N, G336D, N337S, A340R, I345M (protein)
chain: B1 chain with P335N, Y339K
modifications: SG22 mutant HPPD
notes: P268D, E335N, G336D, N337S, A340R, I345M
As to B4, the “herbicide tolerance in planta” value with Thorne soybean plants is on record as “performed similarly to SG1”.

(Values after patent US11708565B2, “HPPD variants and methods of use” (BASF AGRICULTURAL SOLUTIONS SEED US LLC, priority 2017, dated 2023).)
